According to paper PMC9723645 (Nucleic Acids Research, 2022):
Numbering of substitutions follows the chain as printed.

B1: F9 llama-VHH nanobody (affinity maturated) (VHH)
VHH: QVQLVESGGGLAQAGGSLRLSCAASGRTFSDNTMAWHRQGPGKQRGLVAFITTGGRTVYTDSVKGRFIISRDNAKNTGYLQMNSLKPEDTAVYYCFVAGNWGQGTQVTVSS
B2: A3 llama-VHH nanobody (original) (VHH)
VHH: B1 VHH with A12V, F96Y
B3: OD1 llama-VHH nanobody (affinity maturated) (VHH)
VHH: B1 VHH with A12V, Y79F, F96Y
B4: LU5 llama-VHH nanobody (naive) (VHH)
VHH: QVQLVESGGGLVQAGASLRLSCAASGGTLVNSSMGWFRQAPGKERDFVATINWRGDTTWYGESVKGRFSISRDNAKNTVYLQMNSLNPEDTAVYYCAVYRTRYYTGRRMMSPDEYDVWGQGTQVTVSS
B5: LM52 llama-VHH nanobody (mutated) (VHH)
VHH: B4 VHH with A75T, T78M, N87K
B6: LU68 llama-VHH nanobody (naive) (VHH)
VHH: QVQLVESGGGLVQAGGSLRLSCAASGRTLSRYAVGWFRQAPGKEREFVAVVHWNGVSTYYAEPVKGRFTISRDNAKNTVYLQMNSLKPDDTAVYYCAAATTSYVDIYTTDYDYWGQGTQVTVSS
B7: LM41 llama-VHH nanobody (mutated) (VHH)
VHH: B6 VHH with Y60H

molecular target: human fatty acid amide hydrolase (FAAH), amino acids 30-579, untagged (Homo sapiens, UniProt O00519); experiment: SPR
Sequence (O00519 30-579): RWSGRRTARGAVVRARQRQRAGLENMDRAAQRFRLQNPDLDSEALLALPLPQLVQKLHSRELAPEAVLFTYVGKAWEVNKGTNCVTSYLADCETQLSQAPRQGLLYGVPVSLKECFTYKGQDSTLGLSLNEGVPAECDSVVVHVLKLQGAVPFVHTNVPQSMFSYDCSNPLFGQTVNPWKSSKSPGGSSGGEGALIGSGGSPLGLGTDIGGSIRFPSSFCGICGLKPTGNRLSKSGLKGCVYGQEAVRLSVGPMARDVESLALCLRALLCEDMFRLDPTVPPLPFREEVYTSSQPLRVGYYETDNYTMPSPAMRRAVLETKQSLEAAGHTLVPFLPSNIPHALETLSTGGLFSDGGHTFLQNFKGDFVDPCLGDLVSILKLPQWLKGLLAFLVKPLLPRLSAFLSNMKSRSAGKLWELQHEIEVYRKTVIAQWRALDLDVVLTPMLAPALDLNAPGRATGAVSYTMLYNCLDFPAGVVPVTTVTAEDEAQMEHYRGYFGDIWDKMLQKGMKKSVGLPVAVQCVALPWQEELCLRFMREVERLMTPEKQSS

Kd | koff | kon | Binder
1.26 nM | 0.000214 s⁻¹ | 169000 M⁻¹ s⁻¹ | B1
1.56 nM | 5.7e-05 s⁻¹ | 36400 M⁻¹ s⁻¹ | B2
0.65 nM | 0.000107 s⁻¹ | 165000 M⁻¹ s⁻¹ | B3

molecular target: recombinant mouse artemin protein (Ala112-Gly224 fragment) (Mus musculus, UniProt Q9Z0L2); experiment: SPR
Sequence (Q9Z0L2 112-224): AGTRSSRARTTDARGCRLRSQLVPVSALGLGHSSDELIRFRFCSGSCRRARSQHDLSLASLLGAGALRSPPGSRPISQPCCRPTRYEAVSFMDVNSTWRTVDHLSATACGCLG

Kd | koff | kon | Binder
178 nM | 0.0088 s⁻¹ | 49000 M⁻¹ s⁻¹ | B4
102 nM | 0.004 s⁻¹ | 39000 M⁻¹ s⁻¹ | B5
456 nM | 0.023 s⁻¹ | 50000 M⁻¹ s⁻¹ | B6
111 nM | 0.0052 s⁻¹ | 46000 M⁻¹ s⁻¹ | B7
